B1: Ly622 (bispecific antibody, human IgG1, kappa)
heavy: EVQLVESGGGLVQPGGSLRLSCAASGFTFTDYTMDWVRQAPGKGLEWVADVNPNSGGSIYNQRFKGRFTLSVDRSKNTLYLQMNSLRAEDTAVYYCARNLGPSFYFDYWGQGTLVTVSSASTKGPSVFPLAPSSKSTSGGTAALGCLVKDYFPEPVTVSWNSGALTSGVHTFPAVLQSSGLYSLSSVVTVPSSSLGTQTYICNVNHKPSNTKVDKKVEPKSCDKTHTCPPCPAPELLGPSVFLFPPKPKDTLMISRTPEVTCVVVDVSHEDPEVKFNWYVDGVEVHNAKTKPREEQYNSTYRVVSVLTVLHQDWLNGKEYKCKVSNKALPAPIEKTISKAKGQPREPQVYTLPPSREEMTKNQVSLTCLVKGFYPSDIAVEWESNGQPENNYKTTPPVLDSDGSFFLYSKLTVDKSRWQQGNVFSCSVMHEALHNHYTQKSLSLSPGGGGGSGGGGSGGGGSGGGGSDIQMTQSPSSLSASVGDRVTITCKASQNIYIYLNWYQQKPGKAPKLLIYNTNNLQTGVPSRFSGSGSGTDFTLTISSLQPEDFATYYCLQHSSRRTFGGGTKVEIKGGGGSGGGGSGGGGSGGGGSQVQLVESGGGLVQPGGSLKLSCATSGFNFNDYFMNWVRQASGKGLEWVGQIRNKNYNYATYYTESLEGRVTISRDDSKNTAYLQMNSLKTEDTAVYYCTSYYYDGFADYFDYWGQGTTVTVSS
light: not shown
notes: Ly591 HC (IgG1 mutated Fc)-TM740 scFv VL-VH + Ly591 LC
B2: Ly625 (bispecific antibody, human IgG1, kappa)
heavy: EVQLVESGGGLVQPGGSLRLSCAASGFTFTDYTMDWVRQAPGKGLEWVADVNPNSGGSIYNQRFKGRFTLSVDRSKNTLYLQMNSLRAEDTAVYYCARNLGPSFYFDYWGQGTLVTVSSASTKGPSVFPLAPSSKSTSGGTAALGCLVKDYFPEPVTVSWNSGALTSGVHTFPAVLQSSGLYSLSSVVTVPSSSLGTQTYICNVNHKPSNTKVDKKVEPKSCDKTHTCPPCPAPELLGPSVFLFPPKPKDTLMISRTPEVTCVVVDVSHEDPEVKFNWYVDGVEVHNAKTKPREEQYNSTYRVVSVLTVLHQDWLNGKEYKCKVSNKALPAPIEKTISKAKGQPREPQVYTLPPSREEMTKNQVSLTCLVKGFYPSDIAVEWESNGQPENNYKTTPPVLDSDGSFFLYSKLTVDKSRWQQGNVFSCSVMHEALHNHYTQKSLSLSPGGGGGSGGGGSGGGGSGGGGSEVQLVESGGGLVQPGGSLRLSCAASGFTFTNYGLHWVRQAPGKGLEWVSSISPSGGVTYYRDSVKGRFTISRDNSKNTLYLQMNSLRAEDTAVYYCAKPFLGWGGANWIAHWGQGTLVTVSSGGGGSGGGGSGGGGSGGGGSDIQMTQSPSSLSASVGDRVTITCLASEDISNDLAWYQQKPGKAPKLLIYFVDRLLDGVPSRFSGSGSGTDFTLTISSLQPEDFATYYCQQSYKYPPTFGQGTKLEIK
light: not shown
notes: Ly591 HC (IgG1 mutated Fc)-TM559 (printed TM599) scFv VH-VL + Ly591 LC
B3: Ly809 (bispecific antibody, human IgG1, kappa)
heavy: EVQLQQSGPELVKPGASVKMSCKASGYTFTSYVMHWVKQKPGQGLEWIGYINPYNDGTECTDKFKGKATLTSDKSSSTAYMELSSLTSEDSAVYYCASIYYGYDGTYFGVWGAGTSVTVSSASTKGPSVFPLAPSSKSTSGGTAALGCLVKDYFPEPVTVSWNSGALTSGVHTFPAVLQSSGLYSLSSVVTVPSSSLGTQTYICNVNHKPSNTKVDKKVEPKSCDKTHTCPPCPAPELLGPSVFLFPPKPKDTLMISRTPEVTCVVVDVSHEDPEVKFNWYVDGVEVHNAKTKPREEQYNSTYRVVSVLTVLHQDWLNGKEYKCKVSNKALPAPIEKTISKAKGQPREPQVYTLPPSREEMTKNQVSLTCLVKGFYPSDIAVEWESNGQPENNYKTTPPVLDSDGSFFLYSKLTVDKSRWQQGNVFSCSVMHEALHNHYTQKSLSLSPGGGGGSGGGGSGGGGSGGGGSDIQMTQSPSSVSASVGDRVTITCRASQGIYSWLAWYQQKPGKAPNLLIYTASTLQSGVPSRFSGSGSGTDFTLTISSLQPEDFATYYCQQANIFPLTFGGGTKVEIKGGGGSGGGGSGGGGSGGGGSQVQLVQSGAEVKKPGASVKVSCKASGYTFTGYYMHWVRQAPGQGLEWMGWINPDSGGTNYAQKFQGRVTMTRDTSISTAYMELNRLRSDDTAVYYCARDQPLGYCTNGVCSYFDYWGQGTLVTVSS
light: QIVLSQSPAILSTSPGEKVTMTCRASSSVSYMHWYQQKPGSSPKPWIYATSNLASGVPARFSGSRSGTSYSLTISRVEAEDAATYYCQQWSSNTLTFGGGTKLELKRTVAAPSVFIFPPSDEQLKSGTASVVCLLNNFYPREAKVQWKVDNALQSGNSQESVTEQDSKDSTYSLSSTLTLSKADYEKHKVYACEVTHQGLSSPVTKSFNRGEC
notes: Ly383 HC (IgG1 mutated Fc)-Ly253 scFv VL-VH + Ly383 LC
B4: Ly810 (bispecific antibody, human IgG1, kappa)
heavy: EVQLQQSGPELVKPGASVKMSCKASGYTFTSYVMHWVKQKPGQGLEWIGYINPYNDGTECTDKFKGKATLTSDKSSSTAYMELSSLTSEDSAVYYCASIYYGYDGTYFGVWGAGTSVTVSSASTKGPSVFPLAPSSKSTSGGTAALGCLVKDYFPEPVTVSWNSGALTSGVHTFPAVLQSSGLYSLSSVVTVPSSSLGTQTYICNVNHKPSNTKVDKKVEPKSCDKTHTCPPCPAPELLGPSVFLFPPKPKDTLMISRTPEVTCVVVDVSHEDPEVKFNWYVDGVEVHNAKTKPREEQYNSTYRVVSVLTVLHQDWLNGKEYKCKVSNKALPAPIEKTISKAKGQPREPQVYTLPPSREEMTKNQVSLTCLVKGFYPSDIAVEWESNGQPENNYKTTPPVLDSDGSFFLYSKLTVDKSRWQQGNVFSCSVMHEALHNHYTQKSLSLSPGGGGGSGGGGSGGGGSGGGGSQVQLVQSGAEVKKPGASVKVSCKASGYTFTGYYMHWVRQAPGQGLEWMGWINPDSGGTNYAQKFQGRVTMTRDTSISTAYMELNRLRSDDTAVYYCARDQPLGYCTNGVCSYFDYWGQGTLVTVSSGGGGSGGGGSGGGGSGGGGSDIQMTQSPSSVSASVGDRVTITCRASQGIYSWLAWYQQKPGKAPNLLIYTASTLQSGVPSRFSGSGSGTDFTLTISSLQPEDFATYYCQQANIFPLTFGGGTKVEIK
light: B3 light
notes: Ly383 HC (IgG1 mutated Fc)-Ly253 scFv VH-VL + Ly383 LC
B5: Ly624 (bispecific antibody, human IgG1, kappa)
heavy: EVQLVESGGGLVQPGGSLRLSCAASGFTFTDYTMDWVRQAPGKGLEWVADVNPNSGGSIYNQRFKGRFTLSVDRSKNTLYLQMNSLRAEDTAVYYCARNLGPSFYFDYWGQGTLVTVSSASTKGPSVFPLAPSSKSTSGGTAALGCLVKDYFPEPVTVSWNSGALTSGVHTFPAVLQSSGLYSLSSVVTVPSSSLGTQTYICNVNHKPSNTKVDKKVEPKSCDKTHTCPPCPAPELLGPSVFLFPPKPKDTLMISRTPEVTCVVVDVSHEDPEVKFNWYVDGVEVHNAKTKPREEQYNSTYRVVSVLTVLHQDWLNGKEYKCKVSNKALPAPIEKTISKAKGQPREPQVYTLPPSREEMTKNQVSLTCLVKGFYPSDIAVEWESNGQPENNYKTTPPVLDSDGSFFLYSKLTVDKSRWQQGNVFSCSVMHEALHNHYTQKSLSLSPGGGGGSGGGGSGGGGSGGGGSDIQMTQSPSSLSASVGDRVTITCLASEDISNDLAWYQQKPGKAPKLLIYFVDRLLDGVPSRFSGSGSGTDFTLTISSLQPEDFATYYCQQSYKYPPTFGQGTKLEIKGGGGSGGGGSGGGGSGGGGSEVQLVESGGGLVQPGGSLRLSCAASGFTFTNYGLHWVRQAPGKGLEWVSSISPSGGVTYYRDSVKGRFTISRDNSKNTLYLQMNSLRAEDTAVYYCAKPFLGWGGANWIAHWGQGTLVTVSS
light: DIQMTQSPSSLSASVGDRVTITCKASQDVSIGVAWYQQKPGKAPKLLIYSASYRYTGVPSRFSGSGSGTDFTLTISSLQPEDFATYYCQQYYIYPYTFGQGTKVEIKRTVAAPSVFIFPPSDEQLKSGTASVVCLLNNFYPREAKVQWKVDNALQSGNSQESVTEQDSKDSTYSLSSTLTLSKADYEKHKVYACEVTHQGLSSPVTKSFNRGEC
notes: Ly591 HC (IgG1 mutated Fc)-TM559 (printed TM599) scFv VL-VH + Ly591 LC
B6: Ly623 (bispecific antibody, human IgG1, kappa)
heavy: EVQLVESGGGLVQPGGSLRLSCAASGFTFTDYTMDWVRQAPGKGLEWVADVNPNSGGSIYNQRFKGRFTLSVDRSKNTLYLQMNSLRAEDTAVYYCARNLGPSFYFDYWGQGTLVTVSSASTKGPSVFPLAPSSKSTSGGTAALGCLVKDYFPEPVTVSWNSGALTSGVHTFPAVLQSSGLYSLSSVVTVPSSSLGTQTYICNVNHKPSNTKVDKKVEPKSCDKTHTCPPCPAPELLGPSVFLFPPKPKDTLMISRTPEVTCVVVDVSHEDPEVKFNWYVDGVEVHNAKTKPREEQYNSTYRVVSVLTVLHQDWLNGKEYKCKVSNKALPAPIEKTISKAKGQPREPQVYTLPPSREEMTKNQVSLTCLVKGFYPSDIAVEWESNGQPENNYKTTPPVLDSDGSFFLYSKLTVDKSRWQQGNVFSCSVMHEALHNHYTQKSLSLSPGGGGGSGGGGSGGGGSGGGGSQVQLVESGGGLVQPGGSLKLSCATSGFNFNDYFMNWVRQASGKGLEWVGQIRNKNYNYATYYTESLEGRVTISRDDSKNTAYLQMNSLKTEDTAVYYCTSYYYDGFADYFDYWGQGTTVTVSSGGGGSGGGGSGGGGSGGGGSDIQMTQSPSSLSASVGDRVTITCKASQNIYIYLNWYQQKPGKAPKLLIYNTNNLQTGVPSRFSGSGSGTDFTLTISSLQPEDFATYYCLQHSSRRTFGGGTKVEIK
light: not shown
notes: Ly591 HC (IgG1 mutated Fc)-TM740 scFv VH-VL + Ly591 LC
B7: Ly807 (bispecific antibody, human IgG1, kappa)
heavy: QVQLQQPGAELVKPGASVKLSCKASGYTFTSYWMHWVKQRPGQGLEWIGMIHPNSGGTNYNEKFKGKGTLTVDKSSSTAYMQLSSLTSDDSAVYYCVTSQATWFAYWGQGTLVTVSAASTKGPSVFPLAPSSKSTSGGTAALGCLVKDYFPEPVTVSWNSGALTSGVHTFPAVLQSSGLYSLSSVVTVPSSSLGTQTYICNVNHKPSNTKVDKKVEPKSCDKTHTCPPCPAPELLGPSVFLFPPKPKDTLMISRTPEVTCVVVDVSHEDPEVKFNWYVDGVEVHNAKTKPREEQYNSTYRVVSVLTVLHQDWLNGKEYKCKVSNKALPAPIEKTISKAKGQPREPQVYTLPPSREEMTKNQVSLTCLVKGFYPSDIAVEWESNGQPENNYKTTPPVLDSDGSFFLYSKLTVDKSRWQQGNVFSCSVMHEALHNHYTQKSLSLSPG
light: ENVLTQSPAIMSVSPGEKVTMTCRASSSVSSSYLHWYQQKSGASPKFWIYSTSNLASGVPARFSGSGSGTSYSLTISSVEAEDAATYYCQHYSGYPLTFGAGTKLELRRTVAAPSVFIFPPSDEQLKSGTASVVCLLNNFYPREAKVQWKVDNALQSGNSQESVTEQDSKDSTYSLSSTLTLSKADYEKHKVYACEVTHQGLSSPVTKSFNRGECGGGGSGGGGSGGGGSGGGGSDIQMTQSPSSLSASVGDRVTITCLASEDISNDLAWYQQKPGKAPKLLIYFVDRLLDGVPSRFSGSGSGTDFTLTISSLQPEDFATYYCQQSYKYPPTFGQGTKLEIKGGGGSGGGGSGGGGSGGGGSEVQLVESGGGLVQPGGSLRLSCAASGFTFTNYGLHWVRQAPGKGLEWVSSISPSGGVTYYRDSVKGRFTISRDNSKNTLYLQMNSLRAEDTAVYYCAKPFLGWGGANWIAHWGQGTLVTVSS
notes: Ly387 HC (IgG1 mutated Fc) + Ly387 LC-TM559 scFv VL-VH
B8: Ly816 (bispecific antibody, human IgG1, kappa)
heavy: B7 heavy
light: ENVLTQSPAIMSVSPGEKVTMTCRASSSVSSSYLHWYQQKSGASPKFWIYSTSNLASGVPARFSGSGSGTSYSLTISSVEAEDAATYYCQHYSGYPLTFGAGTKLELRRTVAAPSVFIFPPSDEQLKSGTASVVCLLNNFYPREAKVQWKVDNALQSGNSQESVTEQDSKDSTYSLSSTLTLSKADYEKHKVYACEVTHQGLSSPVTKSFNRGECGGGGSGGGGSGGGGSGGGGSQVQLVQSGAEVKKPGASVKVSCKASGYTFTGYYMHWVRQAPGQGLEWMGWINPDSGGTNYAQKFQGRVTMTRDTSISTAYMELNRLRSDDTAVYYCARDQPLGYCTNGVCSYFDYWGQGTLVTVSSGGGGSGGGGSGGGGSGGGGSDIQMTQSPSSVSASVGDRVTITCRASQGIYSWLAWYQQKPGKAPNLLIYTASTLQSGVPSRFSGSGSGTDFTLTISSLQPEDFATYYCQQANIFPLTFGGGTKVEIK
notes: Ly387 HC (IgG1 mutated Fc) + Ly387 LC-Ly253 scFv VH-VL
B9: Ly808 (bispecific antibody, human IgG1, kappa)
heavy: B7 heavy
light: ENVLTQSPAIMSVSPGEKVTMTCRASSSVSSSYLHWYQQKSGASPKFWIYSTSNLASGVPARFSGSGSGTSYSLTISSVEAEDAATYYCQHYSGYPLTFGAGTKLELRRTVAAPSVFIFPPSDEQLKSGTASVVCLLNNFYPREAKVQWKVDNALQSGNSQESVTEQDSKDSTYSLSSTLTLSKADYEKHKVYACEVTHQGLSSPVTKSFNRGECGGGGSGGGGSGGGGSGGGGSEVQLVESGGGLVQPGGSLRLSCAASGFTFTNYGLHWVRQAPGKGLEWVSSISPSGGVTYYRDSVKGRFTISRDNSKNTLYLQMNSLRAEDTAVYYCAKPFLGWGGANWIAHWGQGTLVTVSSGGGGSGGGGSGGGGSGGGGSDIQMTQSPSSLSASVGDRVTITCLASEDISNDLAWYQQKPGKAPKLLIYFVDRLLDGVPSRFSGSGSGTDFTLTISSLQPEDFATYYCQQSYKYPPTFGQGTKLEIK
notes: Ly387 HC (IgG1 mutated Fc) + Ly387 LC-TM559 scFv VH-VL
B10: Ly815 (bispecific antibody, human IgG1, kappa)
heavy: B7 heavy
light: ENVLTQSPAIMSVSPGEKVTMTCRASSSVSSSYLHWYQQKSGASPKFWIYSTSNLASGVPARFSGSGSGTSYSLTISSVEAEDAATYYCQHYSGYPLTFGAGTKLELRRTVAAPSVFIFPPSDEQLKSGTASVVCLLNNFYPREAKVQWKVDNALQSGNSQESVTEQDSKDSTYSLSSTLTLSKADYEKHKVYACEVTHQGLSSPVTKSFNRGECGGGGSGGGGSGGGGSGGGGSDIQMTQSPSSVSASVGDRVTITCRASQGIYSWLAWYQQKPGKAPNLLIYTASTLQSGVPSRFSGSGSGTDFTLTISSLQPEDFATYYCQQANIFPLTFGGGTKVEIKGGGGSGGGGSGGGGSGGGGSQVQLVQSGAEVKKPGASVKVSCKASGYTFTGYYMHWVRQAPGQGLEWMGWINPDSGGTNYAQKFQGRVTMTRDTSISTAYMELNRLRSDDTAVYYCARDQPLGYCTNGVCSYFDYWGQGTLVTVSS
notes: Ly387 HC (IgG1 mutated Fc) + Ly387 LC-Ly253 scFv VL-VH
B11: Ly813 (bispecific antibody, human IgG1, kappa)
heavy: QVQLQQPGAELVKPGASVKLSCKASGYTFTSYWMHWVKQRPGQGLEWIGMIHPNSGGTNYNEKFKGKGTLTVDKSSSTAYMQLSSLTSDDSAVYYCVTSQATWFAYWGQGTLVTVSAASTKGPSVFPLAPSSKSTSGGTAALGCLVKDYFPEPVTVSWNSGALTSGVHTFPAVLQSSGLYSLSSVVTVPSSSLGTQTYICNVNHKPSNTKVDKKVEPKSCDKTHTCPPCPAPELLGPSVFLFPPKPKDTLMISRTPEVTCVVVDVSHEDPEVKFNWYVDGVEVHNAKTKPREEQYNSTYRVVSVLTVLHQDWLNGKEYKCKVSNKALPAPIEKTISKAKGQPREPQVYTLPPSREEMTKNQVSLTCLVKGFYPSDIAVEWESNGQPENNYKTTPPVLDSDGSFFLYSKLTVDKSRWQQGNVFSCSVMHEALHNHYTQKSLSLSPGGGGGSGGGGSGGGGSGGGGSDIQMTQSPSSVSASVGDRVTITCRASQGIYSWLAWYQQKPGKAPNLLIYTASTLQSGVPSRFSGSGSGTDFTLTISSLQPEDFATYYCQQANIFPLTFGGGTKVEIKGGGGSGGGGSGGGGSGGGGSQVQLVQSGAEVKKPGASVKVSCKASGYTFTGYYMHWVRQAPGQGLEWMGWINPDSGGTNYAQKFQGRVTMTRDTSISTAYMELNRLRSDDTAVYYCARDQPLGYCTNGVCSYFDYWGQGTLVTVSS
light: ENVLTQSPAIMSVSPGEKVTMTCRASSSVSSSYLHWYQQKSGASPKFWIYSTSNLASGVPARFSGSGSGTSYSLTISSVEAEDAATYYCQHYSGYPLTFGAGTKLELRRTVAAPSVFIFPPSDEQLKSGTASVVCLLNNFYPREAKVQWKVDNALQSGNSQESVTEQDSKDSTYSLSSTLTLSKADYEKHKVYACEVTHQGLSSPVTKSFNRGEC
notes: Ly387 HC (IgG1 mutated Fc)-Ly253 scFv VL-VH + Ly387 LC
B12: Ly814 (bispecific antibody, human IgG1, kappa)
heavy: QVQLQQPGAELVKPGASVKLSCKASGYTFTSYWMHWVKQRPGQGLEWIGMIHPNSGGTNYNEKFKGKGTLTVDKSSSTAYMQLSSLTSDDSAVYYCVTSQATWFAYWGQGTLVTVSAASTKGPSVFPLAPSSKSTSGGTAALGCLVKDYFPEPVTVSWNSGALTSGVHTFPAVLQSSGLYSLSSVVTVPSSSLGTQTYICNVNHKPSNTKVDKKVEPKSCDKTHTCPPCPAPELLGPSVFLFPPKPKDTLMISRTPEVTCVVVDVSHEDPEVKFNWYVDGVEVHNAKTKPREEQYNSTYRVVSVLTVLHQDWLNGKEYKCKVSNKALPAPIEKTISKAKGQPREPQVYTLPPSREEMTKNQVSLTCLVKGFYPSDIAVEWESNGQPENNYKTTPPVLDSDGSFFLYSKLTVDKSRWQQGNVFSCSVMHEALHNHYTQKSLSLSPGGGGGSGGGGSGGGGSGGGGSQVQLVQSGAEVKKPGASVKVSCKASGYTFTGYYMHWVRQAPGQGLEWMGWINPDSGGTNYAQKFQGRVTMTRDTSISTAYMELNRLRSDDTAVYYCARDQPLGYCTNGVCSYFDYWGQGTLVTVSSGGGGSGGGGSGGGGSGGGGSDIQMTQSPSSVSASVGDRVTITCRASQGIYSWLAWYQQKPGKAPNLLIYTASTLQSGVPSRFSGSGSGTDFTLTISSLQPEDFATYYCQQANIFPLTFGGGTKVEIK
light: B11 light
notes: Ly387 HC-Ly253 scFv VH-VL + Ly387 LC
B13: Ly825 (bispecific antibody, human IgG1, kappa)
heavy: EVQLVESGGGLVQPGGSLRLSCAASGFTFTDYTMDWVRQAPGKGLEWVADVNPNSGGSIYNQRFKGRFTLSVDRSKNTLYLQMNSLRAEDTAVYYCARNLGPSFYFDYWGQGTLVTVSSASTKGPSVFPLAPSSKSTSGGTAALGCLVKDYFPEPVTVSWNSGALTSGVHTFPAVLQSSGLYSLSSVVTVPSSSLGTQTYICNVNHKPSNTKVDKKVEPKSCDKTHTCPPCPAPELLGPSVFLFPPKPKDTLMISRTPEVTCVVVDVSHEDPEVKFNWYVDGVEVHNAKTKPREEQYNSTYRVVSVLTVLHQDWLNGKEYKCKVSNKALPAPIEKTISKAKGQPREPQVYTLPPSREEMTKNQVSLTCLVKGFYPSDIAVEWESNGQPENNYKTTPPVLDSDGSFFLYSKLTVDKSRWQQGNVFSCSVMHEALHNHYTQKSLSLSPG
light: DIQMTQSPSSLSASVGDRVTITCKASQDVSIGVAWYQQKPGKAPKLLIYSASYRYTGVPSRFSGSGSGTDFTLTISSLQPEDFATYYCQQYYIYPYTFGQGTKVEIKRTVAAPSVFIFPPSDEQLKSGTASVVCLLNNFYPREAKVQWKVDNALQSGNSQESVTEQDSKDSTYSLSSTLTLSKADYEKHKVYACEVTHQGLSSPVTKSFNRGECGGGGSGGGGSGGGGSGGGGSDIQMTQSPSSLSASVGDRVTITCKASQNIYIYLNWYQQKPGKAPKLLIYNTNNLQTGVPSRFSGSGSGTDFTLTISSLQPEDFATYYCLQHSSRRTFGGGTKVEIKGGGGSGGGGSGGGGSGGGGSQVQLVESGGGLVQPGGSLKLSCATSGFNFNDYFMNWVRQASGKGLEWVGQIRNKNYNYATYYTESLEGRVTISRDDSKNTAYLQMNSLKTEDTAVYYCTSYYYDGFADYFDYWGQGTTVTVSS
notes: Ly591 HC (IgG1 mutated Fc) + Ly591 LC-TM740 scFv VL-VH

The binders below were run against T1, human CD40 expressed on CHO cells (human, UniProt P25942 21-277) (assay: FACS, CHO cells).
T1 construct: whole, on cells; also used for the reporter cells over-expressing human CD40; also called cellular CD40; CHO-CD40 cells
T1 sequence (P25942 21-277): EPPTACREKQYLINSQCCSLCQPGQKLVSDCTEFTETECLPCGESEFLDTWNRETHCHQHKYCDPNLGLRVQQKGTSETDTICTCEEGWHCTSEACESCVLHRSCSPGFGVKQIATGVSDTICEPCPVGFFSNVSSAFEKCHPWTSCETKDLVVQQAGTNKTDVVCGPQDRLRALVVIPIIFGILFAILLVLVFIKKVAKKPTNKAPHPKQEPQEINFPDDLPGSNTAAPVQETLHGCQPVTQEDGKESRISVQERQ

| binding result | Binder |
| --- | --- |
| binds | B1 |
| binds | B2 |
| binds | B3 |
| binds | B4 |
| binds | B5 |
| binds | B6 |
| binds | B7 |
| binds | B8 |
| binds | B9 |
| binds | B10 |
| binds | B11 |
| binds | B12 |
| binds | B13 |
